The nature of this series: yeast display, Sf9 membrane polyspecificity reagent, FACS + sequencing; frameworks hold sequencing errors. The method in brief:
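Galactose-induced (36–48 hours) yeast carrying a synthetic nanobody display library were exposed to 10% biotinylated, detergent-solubilized Sf9 membrane reagent at 4 °C for 1 hour. FACS followed streptavidin microbead enrichment, using low and high (top ~1%) gates for expression (anti-HA) and reagent binding (streptavidin). Colony PCR, MiSeq 2 × 250 sequencing and CDR-length filtering followed. Labels for polyreactivity reflect the gate of origin.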
Turning to “QVQLVESGGGLVQAGGSLRLSCAAYGSIFTGNTMGWYRQATGKERELVATISRRGGSTYYADSVKGRFTISRDNAKNTVYLQMNSLKPEDTAVYYCARGTVYLTWRNDYWGQGTQVTVSS”, the “polyreactivity (PSR sort gate)” value was “high polyreactivity”.
To “QVQLVESGGGLVQAGGSLRLSCAAYGSIFTRYAMGWYIQAPGKERELVAAISKRGGRTYYADSVKGRFTISRDNAKNTVYLQMNSLKPEDTAVYYCNAGSYDYYDGSWSYDYWGQGTQVTVSS” belongs “high polyreactivity”.
To “QVQLVESGGGLVQAGGSLRLSCAAYGSIFYFNAMGWYRQAPGKERELVAAITYNGGSTRYADSVKGRFTISRDNAKNTVYLQMNSLKPEDTAVYYCAARAKYGPEDGYWGQGTQVTVSS” belongs “high polyreactivity”; to “QVQLVESGGGLVQAGGSLRLSCAAYGSIFYYYAKGWYRQAPGKERELVAAINGGDTYYADSVKGRFTISRDNAKNTVYLHMNSLKPEDTAVYYCAAEGVTVEWDYDYWGQGTQVTVSS”, “low polyreactivity”; to “QVQLVESGGGLVQAGGSLRLSCAAYGSTFDRNAMGWYRQAPGKERDLVAAISWRGGSTYYSDSVKGRFTISRDNAKNTVYLQMNSLKPDDTAVYYCNKVVTWQGPYDYWGQGTQVTVSS”, “high polyreactivity”.
Then “QVQLVESGGGLVQAGGSLRLSCAAYGSTFDRNVMGWYRQAPGKERELVAAISRVSSTNYADSVKGRFTISRDNAKNTVYLQMNSLKPEDTAVYYCAADRPGSIMNYWGQGTQVTVSS”, with “low polyreactivity”.
As to “QVQLVESGGGLVQAGGSLRLSCAAYGSTFKPYAMGRYRQAPGKERELVADITGGGSTNYADSVKGRFTISRDNAKNTVYLQMNSLKPEDTAVYYCNADPVRSTYSYDYWGQGTQVTVSS”, the “polyreactivity (PSR sort gate)” value is on record as “low polyreactivity”.
“QVQLVESGGGLVQAGGSLRLSCAAYGSTFTYYAMGWYRQAPGKERELVAAISSSGGSTYYADSVKGRFTISRDNAKNTVYFQMNSLKPEDTAVYYCAARRKFPYRHDYWGQGTQVTVSS”: the “polyreactivity (PSR sort gate)” value was “high polyreactivity”.
As to “QVQLVESGGGLVQAGGSLRLSCAAYGSTFVSNAMGWSRPAPGKERELVAAISSSGGSTYYADSVKGRFTISRDTATNTVYLQMNSLKPEDTAVYYCVDYYNGYTHNYNYWGQGTQVTVSA”, the “polyreactivity (PSR sort gate)” value is “low polyreactivity”.
Then “QVQLVESGGGLVQAGGSLRLSCAAYGSTFWVYAMVWYRQAPGKERELVAAIDYSGGSTYYADSVKGRFTISRDNAKNNVYLQMNSLKPEDTAVYYCAAGEGQYWLWDGEGEYDYWGQGTQVTVSS”, with “low polyreactivity”.
On to “QVQLVESGGGLVQAGGSLRLSCAAYGYIFIRNAMGCYRQAPGKERELVAAISWTGGNTYYADSVKGRFTISRDNAKNTVYLQMNSLIPEDTAVYYCAAQRSVFKSFRTTYVSYDYWGQGTQVTVSS”, for which the “polyreactivity (PSR sort gate)” value was “high polyreactivity”.
For the sequence “QVQLVESGGGLVQAGGSLRLSCADSARTFYTNAKGWYRQAPGKERELVAAITGSDGNTYYADSVKGRFTISRDNAKNTVYLQMISLKPEDTAVYYGYDYWVQGTQVTVSS”, the “polyreactivity (PSR sort gate)” value is “low polyreactivity”.
In the case of “QVQLVESGGGLVQAGGSLRLSCADSGFIFYFYTKGCYIQSPGKDRELVSGITWLDGSTYYADSVKGRFTISRDNAKNTVYLQMNSLKPEDTAVYYCNRDQWPWESGYAYNYWGQGTQVTVSS”, the “polyreactivity (PSR sort gate)” value is given as “low polyreactivity”.
As for “QVQLVESGGGLVQAGGSLRLSCADSGFTFVEYAMGWYRQAPGKERELVAAITRSGTRTYYADSVKGRFTISRDNAKNTVYLQMNSLKPEDTAVYYCNKPYSKTNHYDSWGQGTQVTVSS”, the “polyreactivity (PSR sort gate)” value was “high polyreactivity”.
“QVQLVESGGGLVQAGGSLRLSCADSGIIFHEYAMGWYRQAPGKERELVASISWNDGSTYADSVKGRFTISRDNAKNTVYLQMNSLKPEDTAVYYCAADYPYYPFSSIYDYWGQGTQVTVSS”: the “polyreactivity (PSR sort gate)” value is reported as “low polyreactivity”.
To “QVQLVESGGGLVQAGGSLRLSCADSGIIFITNAMGWYRQAPGKERELVAAISSTVSTNYADSVKGRFTISRDNAKNTVYLQMNSLIQEDTAVYFCAAEWGLTQGESIYDFWGQGTQVTVSS” belongs “low polyreactivity”.
To “QVQLVESGGGLVQAGGSLRLSCADSGIIFNYYAMGWSRQAPGKEREFVASITSSGSSTYYADSVKGRFTITRDNAKNTVYLQMNSLKPEDTAVYYCAARYLWPKQGGGWGYYSCGQGTQVTVSS” belongs “high polyreactivity”.
To “QVQLVESGGGLVQAGGSLRLSCADSGIIFTQYAMGWYRQAPGKERELVAGISKSGGSTYYADSVKGRFTISRDNAKNTVYLQMNSLKPEDTAVYYCAAPVPKTDKLLRMYYWGQGTQVTVSS” belongs “high polyreactivity”; to “QVQLVESGGGLVQAGGSLRLSCADSGITFSRNAMGWYRQAPGKEMELVATITSGGSTNYADSVKGRFTISRDNAKNTVYLQMNSLKPEDTAVYYCNAVWNTFISGRSYDYWGQGTQVTVSS”, “low polyreactivity”; to “QVQLVESGGGLVQAGGSLRLSCADSGITFWKYAMGWYRQAPGKERELVAAISGRGGSTYYADSVKGRFTISRDNAKNTVYLQMNSLKPEDTAVYYCAKYPGISGYNYWGQGTQVTVSS”, “high polyreactivity”.
With “QVQLVESGGGLVQAGGSLRLSCADSGITLYEYAMGWYRKAPGKERELVAAISTSGGRTRYADSVKGRFTISRDNAKNTVYLQMNSLKPEDTAVYYCAASGFVQISNPRRDYWGLGTQVTVSS”, the “polyreactivity (PSR sort gate)” value is listed as “high polyreactivity”.
Turning to “QVQLVESGGGLVQAGGSLRLSCADSGLIFKSYAMGWYRQARGKERELVAAISGNDGSTYYADSVKGRFTISRDNAKNTVYLQMNSLKPEDTAVYYCAADFSGPWYEYTFNYCGQGTQVTVSS”, the “polyreactivity (PSR sort gate)” value is on record as “high polyreactivity”.
To “QVQLVESGGGLVQAGGSLRLSCADSGLIFYRYAMGWYRQAPGTERELVAAISGSVGSTYADSVKGRFTISRDNAKNTVYLQMNSLKPEDTVVYYCSRETYRSYGAYDYWGLGTQVTVSS” belongs “low polyreactivity”; to “QVQLVESGGGLVQAGGSLRLSCADSGLILHKYAMGWYRQAPGKDRELVASINSGANTNYADSVKGRFTISRDNAKNTVYLQMNSLKPEDSAEYYCNADPGFRSGEYGYSSFDYWGQGTQVTVSS”, “low polyreactivity”; to “QVQLVESGGGLVQAGGSLRLSCADSGLTFEGYAMGWNRQAPGKERELVAAITWSGGNTYYADSVKGRFTSSRDNAKKTVYLQMNSLKPEDTAVYYCAAQRPSRDSRPFEYWGQGTQVTVSS”, “low polyreactivity”.
Then “QVQLVESGGGLVQAGGSLRLSCADSGRIFFDYAMGWYRQAPGKERELVAAISYRGGDTYYADSVKGRFTISRDNAKNTVYLQMNSLIPEDTAVYYCAATGGYYEYWGQGTQVTVSS”, with “low polyreactivity”; and “QVQLVESGGGLVQAGGSLRLSCADSGRIFGINAKGWYRQAPGKARELVASISRRVGRTSYADSVKGRFTISRDNAKNTVYLQMNSLKPEDTAGYFCAADVWNDGSWTDYDYWGQGTQVTVSS”, with “high polyreactivity”; and “QVQLVESGGGLVQAGGSLRLSCADSGRIFNPYAMGWYRQAPGKERELVAGISWGGGSTRYADSVKGRFTISRDNAKNTVYLQMNSLKPVDTAVYYCNSGSYYKRFDYWGKGTQVTVSS”, with “high polyreactivity”.
Take “QVQLVESGGGLVQAGGSLRLSCADSGRIFSSNAIGWYRQAPGQERELVASISSTGSTKYADSVKGRFTISRDNAKNTVYVQMNSLKPEDTAVYYCAAGSYLWHFTFDYWGQGTQVTVSS”: the “polyreactivity (PSR sort gate)” value was “low polyreactivity”.
Then “QVQLVESGGGLVQAGGSLRLSCADSGRIFSWNAMGRYRQAPRKERELVAAISSSGARTYYADSVKGRFTISRDNAKNTVYLQMNSLKPEDTAVYYCIAARSSQHYYSYNYWGQGTQVTVSS”, with “high polyreactivity”.

Source of the values: the nanobody polyreactivity screen of Harvey et al. (2022).
